Columns and labels:
α-syn = α-syn (Homo sapiens, UniProt P37840); assay: ThT aggregation kinetics of α-syn; format: biochemical; settings: 20 μM α-syn, 5 μM ligand; α-syn alone half-time 44 h
[1] = target: α-syn monomers, oligomers or fibrils (Homo sapiens, UniProt P37840); assay: Dot-blot binding assay; settings: 0.05–0.4 μg immobilized protein, 33 μg mL^−1 α-syn monomer, oligomer or fibril
αSOs-Alexa488 = αSOs-Alexa488 (Homo sapiens, UniProt P37840); assay: FIDA binding of αSOs to neuronal proteins in solution; settings: up to 150 μM ligand, in solution

| Reduction of half-time of aggregation (α-syn) [fold] | Binding preference for α-syn species in dot blot [1] | Molecule | Change in Rh of αSOs-Alexa488 on titration with ligand (αSOs-Alexa488) |
| --- | --- | --- | --- |
| 3 | bound most strongly to fibrils | Ubiquitin carboxyl-terminal hydrolase isozyme L1 (UCH-L1) (protein) MQLKPMEINPEMLNKVLSRLGVAGQWRFVDVLGLEEESLGSVPAPACALLLLFPLTAQHENFRKKQIEELKGQEVSPKVYFMKQTIGNSCGTIGLIHAVANNQDKLGFEDGSVLKQFLSETEKMSPEDRAKCFEKNEAIQAAHDAVAQEGQCRVDDKVNFHFILFNNVDGHLYELDGRMPFPVNHGASSEDTLLKDAAKVCREFTEREQGEVRFSAVALCKAA | little change in Rh |
|  |  | NAD-dependent protein deacetylase sirtuin-2 (protein) MAEPDPSHPLETQAGKVQEAQDSDSDSEGGAAGGEADMDFLRNLFSQTLSLGSQKERLLDELTLEGVARYMQSERCRRVICLVGAGISTSAGIPDFRSPSTGLYDNLEKYHLPYPEAIFEISYFKKHPEPFFALAKELYPGQFKPTICHYFMRLLKDKGLLLRCYTQNIDTLERIAGLEQEDLVEAHGTFYTSHCVSASCRHEYPLSWMKEKIFSEVTPKCEDCQSLVKPDIVFFGESLPARFFSCMQSDFLKVDLLLVMGTSLQVQPFASLISKAPLSTPRLLINKEKAGQSDPFLGMIMGLGGGMDFDSKKAYRDVAWLGECDQGCLALAELLGWKKELEDLVRREHASIDAQSGAGVPNPSTSASPKKSPPPAKDEARTTEREKPQ | little change in Rh |

From PMC10016340 (Chemical Science, 2023)
